The assay has as its target human acid α-glucosidase (GAA), 123-200 fragment of the protease-treated enzyme (human, UniProt P10253 123-200). Nature of the assay: crystal structure.

B1: human acid α-glucosidase (GAA), 80-115 fragment of the protease-treated enzyme (domain or fragment)
chain: not shown
For the molecule B1, the binding result is “binds”.
